In US20060094649A1:

Columns and labels:
HLA-B*4001 (human) = experiment: competition with labeled probe peptide, purified HLA class I
HLA-B*4403 (human) = experiment: as above

SEQ ID NO 717, 7-mer of MAGE2 at position 234 (printed as WEELSML) (peptide)
IC50 (HLA-B*4001 (human)): 10.4 µM
IC50 (HLA-B*4403 (human)): 2.01 µM
